Literature values as cited in article PMC3373146.
Like-named read-outs stand apart in the source and are kept apart here.

Columns and labels:
[1] = target: Kv2.1 (UniProt Q14721)
[2] = target: Kv2.1 (UniProt Q14721); remark: listed apart in the source
[3] = target: KCa2.2 (SK2) (UniProt Q9H2S1)
[4] = target: KCa2.1 (SK1) (UniProt Q92952)
[5] = target: KCa2.3 (SK3) (UniProt Q9UGI6)
Sequence of KCa2.3 (SK3) (Q9UGI6 whole entry): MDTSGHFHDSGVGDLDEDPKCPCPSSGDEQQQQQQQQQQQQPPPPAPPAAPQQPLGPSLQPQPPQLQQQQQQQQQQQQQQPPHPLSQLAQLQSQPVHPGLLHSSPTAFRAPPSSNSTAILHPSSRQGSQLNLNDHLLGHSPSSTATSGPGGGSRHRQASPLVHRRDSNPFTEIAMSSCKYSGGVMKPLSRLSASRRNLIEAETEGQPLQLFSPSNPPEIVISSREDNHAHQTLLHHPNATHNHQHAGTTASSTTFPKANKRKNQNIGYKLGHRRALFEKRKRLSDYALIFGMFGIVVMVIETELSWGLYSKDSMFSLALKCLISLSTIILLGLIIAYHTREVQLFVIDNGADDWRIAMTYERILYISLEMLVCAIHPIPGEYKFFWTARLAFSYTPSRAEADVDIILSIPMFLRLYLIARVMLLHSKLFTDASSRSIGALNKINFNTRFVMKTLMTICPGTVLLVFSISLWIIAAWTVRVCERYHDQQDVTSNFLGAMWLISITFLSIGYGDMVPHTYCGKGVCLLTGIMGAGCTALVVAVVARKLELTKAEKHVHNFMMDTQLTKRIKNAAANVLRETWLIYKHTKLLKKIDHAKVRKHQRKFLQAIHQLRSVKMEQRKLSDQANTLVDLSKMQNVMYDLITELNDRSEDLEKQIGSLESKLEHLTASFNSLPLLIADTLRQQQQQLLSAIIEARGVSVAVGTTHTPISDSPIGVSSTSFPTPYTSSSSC

Sequence of Kv2.1 (Q14721 whole entry): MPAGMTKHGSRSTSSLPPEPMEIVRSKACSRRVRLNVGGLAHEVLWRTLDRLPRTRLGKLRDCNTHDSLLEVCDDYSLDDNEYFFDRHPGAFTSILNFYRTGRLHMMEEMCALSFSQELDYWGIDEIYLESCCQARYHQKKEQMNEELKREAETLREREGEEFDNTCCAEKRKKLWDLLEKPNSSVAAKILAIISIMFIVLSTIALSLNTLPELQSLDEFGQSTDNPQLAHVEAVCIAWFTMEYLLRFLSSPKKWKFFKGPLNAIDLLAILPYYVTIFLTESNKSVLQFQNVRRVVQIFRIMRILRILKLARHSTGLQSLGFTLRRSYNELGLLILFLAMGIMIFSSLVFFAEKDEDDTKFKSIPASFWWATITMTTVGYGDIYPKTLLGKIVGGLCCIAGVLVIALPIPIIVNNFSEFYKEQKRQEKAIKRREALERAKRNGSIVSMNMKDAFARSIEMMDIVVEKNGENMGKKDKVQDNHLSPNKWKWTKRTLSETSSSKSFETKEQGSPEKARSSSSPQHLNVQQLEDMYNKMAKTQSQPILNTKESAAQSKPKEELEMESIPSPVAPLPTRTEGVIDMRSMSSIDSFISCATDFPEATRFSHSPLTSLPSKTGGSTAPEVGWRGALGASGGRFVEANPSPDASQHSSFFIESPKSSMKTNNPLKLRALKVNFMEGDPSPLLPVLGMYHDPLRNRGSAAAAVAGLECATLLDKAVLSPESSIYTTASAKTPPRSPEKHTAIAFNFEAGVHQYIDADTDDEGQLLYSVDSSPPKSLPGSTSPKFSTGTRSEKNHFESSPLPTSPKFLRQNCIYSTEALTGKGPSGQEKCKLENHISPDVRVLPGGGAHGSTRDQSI
Sequence of KCa2.2 (SK2) (Q9H2S1 whole entry): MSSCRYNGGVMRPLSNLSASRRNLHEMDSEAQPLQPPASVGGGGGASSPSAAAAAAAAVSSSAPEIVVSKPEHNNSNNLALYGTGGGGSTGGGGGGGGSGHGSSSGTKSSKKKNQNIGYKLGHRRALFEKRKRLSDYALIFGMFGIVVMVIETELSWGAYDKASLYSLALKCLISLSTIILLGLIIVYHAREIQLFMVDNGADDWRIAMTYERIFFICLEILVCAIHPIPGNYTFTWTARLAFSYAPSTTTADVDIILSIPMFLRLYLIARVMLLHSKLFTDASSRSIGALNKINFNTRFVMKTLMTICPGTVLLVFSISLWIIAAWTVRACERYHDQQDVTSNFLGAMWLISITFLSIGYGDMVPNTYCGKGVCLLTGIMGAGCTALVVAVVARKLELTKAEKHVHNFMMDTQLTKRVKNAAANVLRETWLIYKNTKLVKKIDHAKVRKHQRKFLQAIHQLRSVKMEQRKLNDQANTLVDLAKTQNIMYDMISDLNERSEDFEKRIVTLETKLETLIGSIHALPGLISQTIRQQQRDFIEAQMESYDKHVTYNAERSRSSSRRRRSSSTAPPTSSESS
Sequence of hanatoxin 1 (P56852 50-84): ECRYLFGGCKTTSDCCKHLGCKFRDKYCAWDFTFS
Sequence of hanatoxin 2 (P56853 whole entry): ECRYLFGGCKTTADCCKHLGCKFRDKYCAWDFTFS
Sequence of KCa2.1 (SK1) (Q92952 whole entry): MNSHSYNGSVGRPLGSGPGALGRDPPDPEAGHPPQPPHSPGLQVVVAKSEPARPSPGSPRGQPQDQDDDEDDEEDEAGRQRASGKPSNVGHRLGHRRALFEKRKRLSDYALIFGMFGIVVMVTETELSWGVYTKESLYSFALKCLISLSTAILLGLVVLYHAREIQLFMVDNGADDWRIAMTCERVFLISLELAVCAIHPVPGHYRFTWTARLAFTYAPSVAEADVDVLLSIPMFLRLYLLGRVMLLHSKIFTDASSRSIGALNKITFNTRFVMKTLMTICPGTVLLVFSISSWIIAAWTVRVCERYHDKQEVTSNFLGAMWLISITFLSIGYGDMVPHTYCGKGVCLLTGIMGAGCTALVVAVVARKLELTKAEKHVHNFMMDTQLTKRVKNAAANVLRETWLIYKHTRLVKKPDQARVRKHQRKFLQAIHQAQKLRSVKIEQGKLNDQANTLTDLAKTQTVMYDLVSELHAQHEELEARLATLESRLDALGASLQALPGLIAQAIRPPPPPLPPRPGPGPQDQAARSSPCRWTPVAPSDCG

Substance: hanatoxin 2 (from UniProt P56853)
- Kd [1]: 42 nM

Substance: hanatoxin 1 (from UniProt P56852)
- Kd [2]: 42 nM

Substance: apamin (from UniProt P01500)
- Kd [3]: 0.004 nM
- Kd [4]: 0.39 nM
- Kd [5]: 0.011 nM
